# In the RNAGym collection of RNA variant scans (doi:10.1021/acssynbio.7b00057):
# B1: Pistol ribozyme (parent)
# chain: GGGUCGUUGUUCCAUAAUCGCGUGGAUAUGGCACGCAAGUUUCUACCGGGCACCGUAAAUGUCCGACUGGAGCCGUUCGGGCGGCUAUAAACAGACCUCAGGCCCGAAGCGUGGCGGCACCUGCCGCCGGUGGUAAAAAAGAUCGGAAGAGCACACGUCU
# Variants of: B1
# Experiment: aptazyme ON/OFF ratio, guanine; higher = stronger switching; co-transcriptional cleavage with and without guanine
row,Variant,aptazyme ON/OFF ratio
1,U7G U8C G9A U10C U11G C12U C13U,1.18
2,U7G U8C G9A U10C U11A C12U C13U,1.02
3,U7G U8C G9A U10C U11A C12U C13A,1.08
4,U7G U8C G9A U10C U11A C12U C13G,1.06
5,U7G U8C G9A U10A U11G C12U,1.26
6,U7G U8C G9A U10A U11G C12A,1.06
7,U7G U8C G9A U10A U11G C12G,1.19
8,U7G U8C G9A U10G,3.04
9,U7G U8C G9A U10A,3.78
10,U7G U8C G9A U10C,3.27
11,U7G U8A U10G U11G C12G C13G,0.981
12,U7G U8A U10G U11G C12G C13U,1.7
13,U7G U8A U10G U11G C12G C13A,1.15
14,U7G U8A U11A C12A C13G,1.24
15,U7G U8A U11A C12A C13A,1.35
16,U7G U8A U11A C12A C13U,1.39
17,U7G U8A U11G C12G C13U,1.4
18,U7G U8A U11G C12G C13G,1.32
19,U7G U8A U11G C12G C13A,1.16
20,U7G U8C G9A U10G C12U C13A,1.12
21,U7G U8C G9A U10G C12U C13G,1.1

row,Variant,aptazyme ON/OFF ratio
1,U7G U8C G9A U10G C12U C13U,1.26
2,U7G U8C G9A C13A,1.09
3,U7G U8C G9A C13G,1.03
4,U7G U8C G9A C13U,1.22
5,U7G U8A U10G U11G C12U C13G,1.16
6,U7G U8A U10G U11G C12U C13U,1.65
7,U7G U8A U10G U11G C12U C13A,1.44
8,U7G U8A U10G U11A C12U,1.23
9,U7G U8A U10G U11A C12A,1.16
10,U7G U8A U10G U11A C12G,1.43
11,U7G U8C G9A U10A C12A C13U,1.2
12,U7G U8C G9A U10A C12A C13G,1.13
13,U7G U8C G9A U10A C12A C13A,1.23
14,U7G U8C G9A C12G,1.07
15,U7G U8C G9A C12U,1.07
16,U7G U8C G9A C12A,1.06
17,U7G U8C G9A U10C U11A C12A C13U,1.14
18,U7G U8C G9A U10C U11A C12A C13G,1.11
19,U7G U8C G9A U10C U11A C12A C13A,1.15
20,U7G U8C G9A U10A U11A C12U C13G,1.15
21,U7G U8C G9A U10A U11A C12U C13U,1.14

row,Variant,aptazyme ON/OFF ratio
1,U7G U8C G9A U10A U11A C12U C13A,1.13
2,U7G U8A U10G U11A C13G,1.23
3,U7G U8A U10G U11A C13U,1.4
4,U7G U8A U10G U11A C13A,1.18
5,U7G U8C G9A U10A C13G,1.06
6,U7G U8C G9A U10A C13A,1.19
7,U7G U8C G9A U10A C13U,1.83
8,U7G U8A U10G U11A C12A C13A,1.47
9,U7G U8A U10G U11A C12A C13G,1.15
10,U7G U8A U10G U11A C12A C13U,1.12
11,U7G U8C G9A C12A C13G,1.05
12,U7G U8C G9A C12A C13A,1.08
13,U7G U8C G9A C12A C13U,1.06
14,U7G U8A U11C C13U,1.2
15,U7G U8A U11C C13G,1.11
16,U7G U8A U11C C13A,1.32
17,U7G U8C G9A U10G U11C C12A C13U,1.19
18,U7G U8C G9A U10G U11C C12A C13A,1.15
19,U7G U8C G9A U10G U11C C12A C13G,1.16
20,U7G U8C G9A U10C U11G C13U,1.24
21,U7G U8C G9A U10C U11G C13A,1.16

row,Variant,aptazyme ON/OFF ratio
1,U7G U8C G9A U10C U11G C13G,1.27
2,U7G U8C G9A U10G U11G C13U,1.38
3,U7G U8C G9A U10G U11G C13A,1.31
4,U7G U8C G9A U10G U11G C13G,1.28
5,U7G U8C G9A U10C U11G C12A C13G,1.08
6,U7G U8C G9A U10C U11G C12A C13U,1.16
7,U7G U8C G9A U10C U11G C12A C13A,1.11
8,U7G U8A U11A C12U,1.43
9,U7G U8A U11A C12A,1.25
10,U7G U8A U11A C12G,1.22
11,U7G U8C G9A U11A C12G C13U,1.1
12,U7G U8C G9A U11A C12G C13A,1.05
13,U7G U8C G9A U11A C12G C13G,1.06
14,U7G U8C G9A U10A U11C C12A C13G,1.25
15,U7G U8C G9A U10A U11C C12A C13U,1.13
16,U7G U8C G9A U10A U11C C12A C13A,1.13
17,U7G U8C G9A U10G U11G C12U C13G,1.22
18,U7G U8C G9A U10G U11G C12U C13A,1.28
19,U7G U8C G9A U10G U11G C12U C13U,1.52
20,U7G U8C G9A U10C C12A C13G,1.14
